# Laboratory results: the supplement of paper PMC10567573
# B1: GLT8D2 (parent)
# chain: QEAKLLHWNGRHKPWDFPSVHNDL
# Variants of: B1
# Assay: protein stability index of a GFP-peptide fusion (GPS, HEK-293T) (PSI 1-6); higher = more stable
# Details: c terminus: a fixed tail appended
# 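Further: lentivirally expressed fusions sorted by FACS into six bins by GFP to DsRed ratio, PSI derived from sequencing read proportions per bin multiplied by bin number.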
row,Variant,protein stability index
1,QDAKLLHWNGRHKPWDFPSVHNDL [E2D],2.65
2,QFAKLLHWNGRHKPWDFPSVHNDL [E2F],1.58
3,QGAKLLHWNGRHKPWDFPSVHNDL [E2G],2.39
4,QHAKLLHWNGRHKPWDFPSVHNDL [E2H],2.21
5,QIAKLLHWNGRHKPWDFPSVHNDL [E2I],1.78
6,QKAKLLHWNGRHKPWDFPSVHNDL [E2K],2.18
7,QLAKLLHWNGRHKPWDFPSVHNDL [E2L],1.96
8,QMAKLLHWNGRHKPWDFPSVHNDL [E2M],1.45
9,QNAKLLHWNGRHKPWDFPSVHNDL [E2N],2.48
10,QPAKLLHWNGRHKPWDFPSVHNDL [E2P],2.58
11,QQAKLLHWNGRHKPWDFPSVHNDL [E2Q],2.85
12,QRAKLLHWNGRHKPWDFPSVHNDL [E2R],2.17
13,QSAKLLHWNGRHKPWDFPSVHNDL [E2S],2.04
14,QTAKLLHWNGRHKPWDFPSVHNDL [E2T],2.18
15,QVAKLLHWNGRHKPWDFPSVHNDL [E2V],1.89
16,QWAKLLHWNGRHKPWDFPSVHNDL [E2W],2.2
17,QYAKLLHWNGRHKPWDFPSVHNDL [E2Y],2.04
18,QECKLLHWNGRHKPWDFPSVHNDL [A3C],2.23
19,QEDKLLHWNGRHKPWDFPSVHNDL [A3D],3.47
20,QEEKLLHWNGRHKPWDFPSVHNDL [A3E],3.51
21,QEFKLLHWNGRHKPWDFPSVHNDL [A3F],2.25
22,QEGKLLHWNGRHKPWDFPSVHNDL [A3G],2.6
23,QEHKLLHWNGRHKPWDFPSVHNDL [A3H],2.83
24,QEIKLLHWNGRHKPWDFPSVHNDL [A3I],2.24

row,Variant,protein stability index
1,QEKKLLHWNGRHKPWDFPSVHNDL [A3K],2.59
2,QELKLLHWNGRHKPWDFPSVHNDL [A3L],2.59
3,QEMKLLHWNGRHKPWDFPSVHNDL [A3M],3.06
4,QENKLLHWNGRHKPWDFPSVHNDL [A3N],2.84
5,QEPKLLHWNGRHKPWDFPSVHNDL [A3P],2.33
6,QEQKLLHWNGRHKPWDFPSVHNDL [A3Q],2.58
7,QERKLLHWNGRHKPWDFPSVHNDL [A3R],1.95
8,QESKLLHWNGRHKPWDFPSVHNDL [A3S],2.69
9,QETKLLHWNGRHKPWDFPSVHNDL [A3T],2.75
10,QEVKLLHWNGRHKPWDFPSVHNDL [A3V],2.5
11,QEWKLLHWNGRHKPWDFPSVHNDL [A3W],2.24
12,QEYKLLHWNGRHKPWDFPSVHNDL [A3Y],2.19
13,QEAALLHWNGRHKPWDFPSVHNDL [K4A],2.81
14,QEACLLHWNGRHKPWDFPSVHNDL [K4C],2.3
15,QEADLLHWNGRHKPWDFPSVHNDL [K4D],2.67
16,QEAELLHWNGRHKPWDFPSVHNDL [K4E],3.28
17,QEAFLLHWNGRHKPWDFPSVHNDL [K4F],2
18,QEAGLLHWNGRHKPWDFPSVHNDL [K4G],2.89
19,QEAHLLHWNGRHKPWDFPSVHNDL [K4H],2.84
20,QEAILLHWNGRHKPWDFPSVHNDL [K4I],2.47
21,QEALLLHWNGRHKPWDFPSVHNDL [K4L],2.56
22,QEAMLLHWNGRHKPWDFPSVHNDL [K4M],2.64
23,QEANLLHWNGRHKPWDFPSVHNDL [K4N],2.68
24,QEAPLLHWNGRHKPWDFPSVHNDL [K4P],2.83

row,Variant,protein stability index
1,QEAQLLHWNGRHKPWDFPSVHNDL [K4Q],2.5
2,QEARLLHWNGRHKPWDFPSVHNDL [K4R],2.87
3,QEASLLHWNGRHKPWDFPSVHNDL [K4S],2.99
4,QEATLLHWNGRHKPWDFPSVHNDL [K4T],2.92
5,QEAVLLHWNGRHKPWDFPSVHNDL [K4V],2.34
6,QEAWLLHWNGRHKPWDFPSVHNDL [K4W],2.7
7,QEAYLLHWNGRHKPWDFPSVHNDL [K4Y],2.13
8,QEAKALHWNGRHKPWDFPSVHNDL [L5A],3.04
9,QEAKCLHWNGRHKPWDFPSVHNDL [L5C],2.77
10,QEAKDLHWNGRHKPWDFPSVHNDL [L5D],3.3
11,QEAKELHWNGRHKPWDFPSVHNDL [L5E],3.33
12,QEAKFLHWNGRHKPWDFPSVHNDL [L5F],2.51
13,QEAKGLHWNGRHKPWDFPSVHNDL [L5G],3.26
14,QEAKHLHWNGRHKPWDFPSVHNDL [L5H],2.67
15,QEAKILHWNGRHKPWDFPSVHNDL [L5I],2.73
16,QEAKKLHWNGRHKPWDFPSVHNDL [L5K],3.14
17,QEAKMLHWNGRHKPWDFPSVHNDL [L5M],2.94
18,QEAKNLHWNGRHKPWDFPSVHNDL [L5N],2.67
19,QEAKPLHWNGRHKPWDFPSVHNDL [L5P],3.05
20,QEAKQLHWNGRHKPWDFPSVHNDL [L5Q],2.83
21,QEAKRLHWNGRHKPWDFPSVHNDL [L5R],2.92
22,QEAKSLHWNGRHKPWDFPSVHNDL [L5S],3.27
23,QEAKTLHWNGRHKPWDFPSVHNDL [L5T],2.81
24,QEAKVLHWNGRHKPWDFPSVHNDL [L5V],2.58

row,Variant,protein stability index
1,QEAKWLHWNGRHKPWDFPSVHNDL [L5W],2.59
2,QEAKYLHWNGRHKPWDFPSVHNDL [L5Y],2.45
3,QEAKLAHWNGRHKPWDFPSVHNDL [L6A],2.87
4,QEAKLCHWNGRHKPWDFPSVHNDL [L6C],2.75
5,QEAKLDHWNGRHKPWDFPSVHNDL [L6D],2.79
6,QEAKLEHWNGRHKPWDFPSVHNDL [L6E],3.74
7,QEAKLFHWNGRHKPWDFPSVHNDL [L6F],2.83
8,QEAKLGHWNGRHKPWDFPSVHNDL [L6G],2.89
9,QEAKLHHWNGRHKPWDFPSVHNDL [L6H],2.62
10,QEAKLIHWNGRHKPWDFPSVHNDL [L6I],2.67
11,QEAKLKHWNGRHKPWDFPSVHNDL [L6K],2.52
12,QEAKLMHWNGRHKPWDFPSVHNDL [L6M],2.3
13,QEAKLNHWNGRHKPWDFPSVHNDL [L6N],2.71
14,QEAKLPHWNGRHKPWDFPSVHNDL [L6P],2.7
15,QEAKLQHWNGRHKPWDFPSVHNDL [L6Q],2.76
16,QEAKLRHWNGRHKPWDFPSVHNDL [L6R],2.85
17,QEAKLSHWNGRHKPWDFPSVHNDL [L6S],2.91
18,QEAKLTHWNGRHKPWDFPSVHNDL [L6T],2.68
19,QEAKLVHWNGRHKPWDFPSVHNDL [L6V],2.48
20,QEAKLWHWNGRHKPWDFPSVHNDL [L6W],2.26
21,QEAKLYHWNGRHKPWDFPSVHNDL [L6Y],2.56
22,QEAKLLAWNGRHKPWDFPSVHNDL [H7A],2.87
